Measurements taken from article PMC8805389, “High-level production of the agmatine in engineered Corynebacterium crenatum with the inhibition-releasing arginine decarboxylase” (Microbial Cell Factories, 2022).
Numbering of substitutions follows the chain as printed. Numbers in names are those of the source.

Tests used:
[1] = substrate: N=C(N)NCCC[C@H](N)C(=O)O; assay: purified protein; settings: 50 mM Tris-HCl pH 8.0, 2.5 mM MgSO4, 0.6 mM PLP, 37 °C
[2] = substrate: N=C(N)NCCC[C@H](N)C(=O)O; assay: arginine decarboxylase activity, agmatine by HPLC; format: biochemical, Escherichia coli; settings: 50 mM Tris-HCl pH 8.0, 2.5 mM MgSO4, 0.6 mM PLP, 37 °C
Excerpt: arginine decarboxylase activity, agmatine by HPLC on SpeA

B1: SpeA (Escherichia coli K-12) (protein)
chain: MSDDMSMGLPSSAGEHGVLRSMQEVAMSSQEASKMLRTYNIAWWGNNYYDVNELGHISVCPDPDVPEARVDLAQLVKTREAQGQRLPALFCFPQILQHRLRSINAAFKRARESYGYNGDYFLVYPIKVNQHRRVIESLIHSGEPLGLEAGSKAELMAVLAHAGMTRSVIVCNGYKDREYIRLALIGEKMGHKVYLVIEKMSEIAIVLDEAERLNVVPRLGVRARLASQGSGKWQSSGGEKSKFGLAATQVLQLVETLREAGRLDSLQLLHFHLGSQMANIRDIATGVRESARFYVELHKLGVNIQCFDVGGGLGVDYEGTRSQSDCSVNYGLNEYANNIIWAIGDACEENGLPHPTVITESGRAVTAHHTVLVSNIIGVERNEYTVPTAPAEDAPRALQSMWETWQEMHEPGTRRSLREWLHDSQMDLHDIHIGYSSGIFSLQERAWAEQLYLSMCHEVQKQLDPQNRAHRPIIDELQERMADKMYVNFSLFQSMPDAWGIDQLFPVLPLEGLDQVPERRAVLLDITCDSDGAIDHYIDGDGIATTMPMPEYDPENPPMLGFFMVGAYQEILGNMHNLFGDTEAVDVFVFPDGSVEVELSDEGDTVADMLQYVQLDPKTLLTQFRDQVKKTDLDAELQQQFLEEFEAGLYGYTYLEDE
Km [1]: 0.602 ± 0.092 mM
kcat [1]: 1.79 ± 0.135 s⁻¹
kcat/Km [1]: 2970 M⁻¹ s⁻¹

B2: SpeA (Escherichia coli K-12; I534D) (protein)
chain: B1 chain with I534D
notes: C-terminal His-tag; expressed in E. coli BL21(DE3) from pXMJ19; HisTrap purified; tetramer (two dimers)
Km [2]: 0.623 ± 0.075 mM
kcat [2]: 2.64 ± 0.328 s⁻¹
kcat/Km [2]: 4240 M⁻¹ s⁻¹

B3: SpeA (Escherichia coli K-12; I534S) (protein)
chain: B1 chain with I534S
notes: as for B2
Km [2]: 0.691 ± 0.069 mM
kcat [2]: 2.12 ± 0.206 s⁻¹
kcat/Km [2]: 3070 M⁻¹ s⁻¹
